The test addresses rhodopsin (bovine (endogenous in bovine retina)) (UniProt P02699).

Sequence of rhodopsin (bovine (endogenous in bovine retina)) (P02699 whole entry): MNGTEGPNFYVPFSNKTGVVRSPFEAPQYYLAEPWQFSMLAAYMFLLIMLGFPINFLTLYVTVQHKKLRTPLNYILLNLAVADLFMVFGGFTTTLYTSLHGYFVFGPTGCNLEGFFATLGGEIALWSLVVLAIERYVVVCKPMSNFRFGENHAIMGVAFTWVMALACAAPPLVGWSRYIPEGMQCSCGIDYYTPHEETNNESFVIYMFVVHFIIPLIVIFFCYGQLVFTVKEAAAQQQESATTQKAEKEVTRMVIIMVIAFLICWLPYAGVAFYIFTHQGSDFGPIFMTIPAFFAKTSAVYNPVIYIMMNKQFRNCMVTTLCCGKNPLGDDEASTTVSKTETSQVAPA
Sequence of transducin, heterotrimeric G protein (Gt) (P04695 whole entry): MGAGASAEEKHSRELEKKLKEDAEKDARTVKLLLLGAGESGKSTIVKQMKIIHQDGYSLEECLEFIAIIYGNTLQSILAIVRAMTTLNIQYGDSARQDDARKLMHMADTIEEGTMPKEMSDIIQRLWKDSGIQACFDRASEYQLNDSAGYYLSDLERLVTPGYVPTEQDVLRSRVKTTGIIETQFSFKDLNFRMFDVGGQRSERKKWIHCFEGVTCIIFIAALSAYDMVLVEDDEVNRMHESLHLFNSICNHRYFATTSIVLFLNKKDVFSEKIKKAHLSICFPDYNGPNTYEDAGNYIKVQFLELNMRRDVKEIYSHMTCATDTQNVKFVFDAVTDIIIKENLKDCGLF
Sequence of transducin, heterotrimeric G protein (Gt) (P62871 whole entry): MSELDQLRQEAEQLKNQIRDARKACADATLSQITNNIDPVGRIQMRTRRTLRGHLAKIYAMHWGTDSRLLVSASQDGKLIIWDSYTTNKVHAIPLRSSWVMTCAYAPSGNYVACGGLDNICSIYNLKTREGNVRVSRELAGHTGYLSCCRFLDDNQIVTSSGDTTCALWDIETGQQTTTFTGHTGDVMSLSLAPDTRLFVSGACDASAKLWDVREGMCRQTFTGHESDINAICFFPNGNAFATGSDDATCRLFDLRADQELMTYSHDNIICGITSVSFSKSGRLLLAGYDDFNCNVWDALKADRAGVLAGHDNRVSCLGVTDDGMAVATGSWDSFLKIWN
Sequence of transducin, heterotrimeric G protein (Gt) (P02698 whole entry): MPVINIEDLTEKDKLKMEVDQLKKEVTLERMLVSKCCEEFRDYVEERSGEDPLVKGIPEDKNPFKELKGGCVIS

Regarding “transducin, heterotrimeric G protein (Gt) (from UniProt P04695 1-350; P62871 1-340; P02698 1-74) (complex)”, the ratio Gt•GDP:Gt by native MS with 90 μM compound 1, ROS membrane present, from dark (1.2) to 15 s of illumination (0.6) (ratio Gt•GDP:Gt) is 1.2; the ratio Gt•GDP:Gt by native MS with 90 μM compound 6, ROS membrane present, from dark (2.0) to 15 s of illumination (0.8) (ratio Gt•GDP:Gt) was 2; the ratio Gt•GDP:Gt by native MS, control without compound, ROS membrane present, from dark (4.1) to 15 s of illumination (1.2) (ratio Gt•GDP:Gt) was found to be 4.1.

For the origin of these results see article PMC9007743.
